Source: patent US20160115200A1, “New Use for JNK Inhibitor Molecules for Treatment of Various Diseases” (XIGEN INFLAMMATION LTD., priority 2013, published 2016)
pIC50: −log10 of the molar value.

Columns and labels:
Test in all cases: kinase inhibition
[1] = biological target: His-JNK2 (ref 14-329, Upstate) (UniProt P45984)
[2] = biological target: His-JNK3 (ref 14-501, Upstate) (UniProt P53779)
[3] = biological target: His-JNK1 (ref 14-327, Upstate) (UniProt P45983)
His-JNK1 (ref 14-327, Upstate), sequence (P45983 other isoform, or with tags, fused parts or gaps): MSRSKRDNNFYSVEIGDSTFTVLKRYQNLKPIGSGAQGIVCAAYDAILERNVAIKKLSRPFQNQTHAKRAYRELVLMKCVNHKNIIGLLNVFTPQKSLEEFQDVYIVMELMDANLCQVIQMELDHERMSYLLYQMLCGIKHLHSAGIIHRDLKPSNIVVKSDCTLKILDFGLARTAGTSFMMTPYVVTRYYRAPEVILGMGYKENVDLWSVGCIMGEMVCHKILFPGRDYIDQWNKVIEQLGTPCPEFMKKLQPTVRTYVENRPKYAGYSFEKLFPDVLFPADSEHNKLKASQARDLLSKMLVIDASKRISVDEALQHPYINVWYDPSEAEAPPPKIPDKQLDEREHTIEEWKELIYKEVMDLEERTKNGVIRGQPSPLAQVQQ

His-JNK3 (ref 14-501, Upstate), sequence (P53779 other isoform, or with tags, fused parts or gaps): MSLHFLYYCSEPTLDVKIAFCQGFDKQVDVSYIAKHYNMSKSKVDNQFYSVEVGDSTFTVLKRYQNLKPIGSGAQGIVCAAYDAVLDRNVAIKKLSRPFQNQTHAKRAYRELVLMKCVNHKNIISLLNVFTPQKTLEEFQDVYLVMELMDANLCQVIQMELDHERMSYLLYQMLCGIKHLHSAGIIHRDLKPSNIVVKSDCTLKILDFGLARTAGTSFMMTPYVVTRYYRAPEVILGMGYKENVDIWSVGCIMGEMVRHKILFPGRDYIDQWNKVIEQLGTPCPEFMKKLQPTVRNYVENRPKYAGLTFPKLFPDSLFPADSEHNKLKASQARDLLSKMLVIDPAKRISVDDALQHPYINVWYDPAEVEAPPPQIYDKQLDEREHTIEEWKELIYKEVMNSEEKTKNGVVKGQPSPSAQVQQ

D-TAT-IB1 was tested, and the pIC50 [1] was 6.10, the pIC50 [2] was 5.89 and the pIC50 [3] was 4.61.
